Test results as given in US20240343815A1.
Where two headings read alike, the source gives them in different places.

How the values were obtained:
[1] = biological target: recombinant human IL4Rα-his protein (human) (UniProt P24394); assay: IL4-IL4Rα blocking ELISA, IL4Rα-his coated, biotinylated IL4
[2] = biological target: human IL4Rα expressed on the surface of 293F-IL4Rα cells (human) (UniProt P24394); assay: flow cytometry on 293F-IL4Rα cells
[3] = biological target: marmoset monkey IL4Rα-his protein (marmoset monkey); assay: indirect ELISA, marmoset IL4Rα-his coated
[4] = biological target: human IL4Rα expressed on the surface of 293F-IL4Rα cells (human) (UniProt P24394); assay: cell-based ligand blocking FACS, 293F-IL4Rα cells, biotinylated IL4
[5] = biological target: human IL4Rα on HEK293T-IL4Rα-STAT6-STAT6LUC-LB2 cells (human) (UniProt P24394); assay: cell-based or functional assay
[6] = biological target: recombinant human IL4Rα-his protein (human) (UniProt P24394); assay: benchmark blocking ELISA, competitor benchmark coated (self-competition), biotinylated IL4Rα-his
[7] = biological target: human IL4Rα on HEK293T-IL4Rα-STAT6-STAT6LUC-LB2 cells (human) (UniProt P24394); assay: cell-based or functional assay; remark: listed apart in the source
[8] = biological target: recombinant human IL4Rα-his protein (human) (UniProt P24394); assay: SPR Biacore, mAb captured, IL4Rα-his analyte
[9] = biological target: human IL4Rα expressed on the surface of 293F-IL4Rα cells (human) (UniProt P24394); assay: flow cytometry on 293F-IL4Rα cells; remark: listed apart in the source
[10] = biological target: cynomolgus monkey IL4Rα-his protein (cynomolgus monkey); assay: indirect ELISA, cynomolgus IL4Rα-his coated
[11] = biological target: recombinant human IL4Rα-his protein (human) (UniProt P24394); assay: SPR Biacore, mAb captured, IL4Rα-his analyte; remark: listed apart in the source
[12] = biological target: recombinant human IL4Rα-his protein (human) (UniProt P24394); assay: SPR Biacore, mAb captured, IL4Rα-his analyte; remark: listed apart in the source
[13] = biological target: recombinant human IL4Rα-his protein (human) (UniProt P24394); assay: capture ELISA, mAb captured by anti-human IgG, biotinylated IL4Rα-his
[14] = biological target: recombinant human IL4Rα-his protein (human) (UniProt P24394); assay: IL4-IL4Rα blocking ELISA, IL4Rα-his coated, biotinylated IL4; remark: listed apart in the source

Chain of cynomolgus monkey IL4Rα-his protein (cynomolgus monkey) (chain, as listed by the source): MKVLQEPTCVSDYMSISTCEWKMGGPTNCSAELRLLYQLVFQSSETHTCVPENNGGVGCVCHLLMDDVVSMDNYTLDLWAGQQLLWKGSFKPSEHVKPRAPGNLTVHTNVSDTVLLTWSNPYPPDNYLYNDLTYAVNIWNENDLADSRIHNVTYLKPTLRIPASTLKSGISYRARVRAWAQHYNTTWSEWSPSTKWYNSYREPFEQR
Chain of marmoset monkey IL4Rα-his protein (marmoset monkey) (chain, as listed by the source limits assumed): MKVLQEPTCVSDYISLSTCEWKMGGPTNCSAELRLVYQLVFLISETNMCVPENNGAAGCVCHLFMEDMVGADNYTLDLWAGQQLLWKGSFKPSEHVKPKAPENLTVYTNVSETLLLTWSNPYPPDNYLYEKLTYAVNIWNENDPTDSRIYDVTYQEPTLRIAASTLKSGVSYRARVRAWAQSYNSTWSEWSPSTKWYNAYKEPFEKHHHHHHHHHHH

IC50 [1]: 2.06 nM
EC50 [2]: 0.46 nM
EC50 [3]: 1.72 nM
IC50 [4]: 0.42 nM
Inhibition of IL4-induced STAT6 phosphorylation (IC50, nM) [5]: 0.37 nM
Inhibition of IL13-induced STAT6 phosphorylation (IC50, nM) [5]: 0.48 nM
IC50 [6]: 0.19 nM
Inhibition of IL4-induced STAT6 phosphorylation (IC50, nM) [7]: 0.7 nM
Inhibition of IL13-induced STAT6 phosphorylation (IC50, nM) [7]: 0.84 nM
Kd [8]: 0.466 nM
EC50 [9]: 0.4 nM
EC50 [10]: 0.67 nM
Kd [11]: 0.746 nM
Dissociation (%) [12]: -2.64%
End (RU) [12]: 70 RU
Kd [12]: 0.188 nM
Start (RU) [12]: 71.9 RU
koff [12]: 6.25e-05 s⁻¹
kon [12]: 333000 M⁻¹ s⁻¹
EC50 [13]: 0.05 nM
IC50 [14]: 1.74 nM
B1: anti-IL4Rα antibody benchmark (dupilumab) (antibody, INN chains, looked up, V domains shown)
VH: EVQLVESGGGLEQPGGSLRLSCAGSGFTFRDYAMTWVRQAPGKGLEWVSSISGSGGNTYYADSVKGRFTISRDNSKNTLYLQMNSLRAEDTAVYYCAKDRLSITIRPRYYGLDVWGQGTTVTVSS
VL: DIVMTQSPLSLPVTPGEPASISCRSSQSLLYSIGYNYLDWYLQKSGQSPQLLIYLGSNRASGVPDRFSGSGSGTDFTLKISRVEAEDVGFYYCMQALQTPYTFGQGTKLEIKR
